# Assays:
# SHP2-C SH2 = assay: SH2 binding enrichment of the phosphorylated peptide, bacterial display (enrichment ratio); higher = better substrate or ligand; peptides without Tyr show the background
# Grb2 SH2 = Grb2 SH2 (UniProt P62993); assay: as above
# c-Src SH2 = assay: as above
# FGFR1 = FGFR1 (UniProt P11362); assay: phosphorylation enrichment, bacterial display (enrichment ratio); higher = better substrate or ligand; peptides without Tyr show the background
# EPHB1 = EPHB1 (UniProt P54762); assay: as above
# Sequence of EPHB1 (P54762 whole entry, looked up): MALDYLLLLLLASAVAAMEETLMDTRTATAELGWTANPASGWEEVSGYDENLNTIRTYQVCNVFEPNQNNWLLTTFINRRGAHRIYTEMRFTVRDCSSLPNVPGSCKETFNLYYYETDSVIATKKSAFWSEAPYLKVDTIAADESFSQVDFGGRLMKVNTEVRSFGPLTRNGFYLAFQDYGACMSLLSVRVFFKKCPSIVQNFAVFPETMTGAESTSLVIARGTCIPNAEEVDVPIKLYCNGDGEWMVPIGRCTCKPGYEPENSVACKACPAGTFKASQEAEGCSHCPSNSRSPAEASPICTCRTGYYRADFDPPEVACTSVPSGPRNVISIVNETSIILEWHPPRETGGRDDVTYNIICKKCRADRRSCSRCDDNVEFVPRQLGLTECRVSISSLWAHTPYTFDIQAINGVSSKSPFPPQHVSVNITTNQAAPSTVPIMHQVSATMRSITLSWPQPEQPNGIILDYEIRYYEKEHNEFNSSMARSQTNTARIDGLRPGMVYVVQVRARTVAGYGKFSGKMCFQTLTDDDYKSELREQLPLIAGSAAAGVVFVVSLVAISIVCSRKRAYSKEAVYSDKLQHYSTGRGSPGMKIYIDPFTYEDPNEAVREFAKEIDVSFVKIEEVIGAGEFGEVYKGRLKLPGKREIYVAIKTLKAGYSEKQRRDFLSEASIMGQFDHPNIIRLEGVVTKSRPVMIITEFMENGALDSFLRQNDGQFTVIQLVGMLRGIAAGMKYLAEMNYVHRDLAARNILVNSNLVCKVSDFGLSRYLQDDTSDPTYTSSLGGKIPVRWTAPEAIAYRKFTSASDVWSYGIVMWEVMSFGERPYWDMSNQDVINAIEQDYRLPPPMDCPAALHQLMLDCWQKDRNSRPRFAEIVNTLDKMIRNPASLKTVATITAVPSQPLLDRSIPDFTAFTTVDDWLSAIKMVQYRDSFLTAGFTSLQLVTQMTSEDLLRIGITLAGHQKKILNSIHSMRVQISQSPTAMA
# Hck = Hck (UniProt P08631); assay: as above
# Sequence of Hck (P08631 whole entry, looked up): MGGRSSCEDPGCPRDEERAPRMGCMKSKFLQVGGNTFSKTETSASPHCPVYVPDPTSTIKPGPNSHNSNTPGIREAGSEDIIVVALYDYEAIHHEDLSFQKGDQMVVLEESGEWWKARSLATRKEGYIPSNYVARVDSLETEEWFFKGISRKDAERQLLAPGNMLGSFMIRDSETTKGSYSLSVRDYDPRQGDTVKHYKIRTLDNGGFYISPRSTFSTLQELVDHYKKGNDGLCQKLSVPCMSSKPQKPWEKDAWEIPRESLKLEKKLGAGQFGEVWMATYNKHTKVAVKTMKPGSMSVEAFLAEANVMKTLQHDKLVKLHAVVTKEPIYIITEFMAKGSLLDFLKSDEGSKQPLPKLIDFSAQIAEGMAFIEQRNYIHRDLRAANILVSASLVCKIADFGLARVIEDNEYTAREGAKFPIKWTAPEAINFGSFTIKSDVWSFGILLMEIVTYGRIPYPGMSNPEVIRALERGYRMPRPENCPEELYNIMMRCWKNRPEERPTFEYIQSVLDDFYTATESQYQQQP
# Fyn = Fyn (UniProt P06241); assay: as above
# Sequence of Fyn (P06241 whole entry, looked up): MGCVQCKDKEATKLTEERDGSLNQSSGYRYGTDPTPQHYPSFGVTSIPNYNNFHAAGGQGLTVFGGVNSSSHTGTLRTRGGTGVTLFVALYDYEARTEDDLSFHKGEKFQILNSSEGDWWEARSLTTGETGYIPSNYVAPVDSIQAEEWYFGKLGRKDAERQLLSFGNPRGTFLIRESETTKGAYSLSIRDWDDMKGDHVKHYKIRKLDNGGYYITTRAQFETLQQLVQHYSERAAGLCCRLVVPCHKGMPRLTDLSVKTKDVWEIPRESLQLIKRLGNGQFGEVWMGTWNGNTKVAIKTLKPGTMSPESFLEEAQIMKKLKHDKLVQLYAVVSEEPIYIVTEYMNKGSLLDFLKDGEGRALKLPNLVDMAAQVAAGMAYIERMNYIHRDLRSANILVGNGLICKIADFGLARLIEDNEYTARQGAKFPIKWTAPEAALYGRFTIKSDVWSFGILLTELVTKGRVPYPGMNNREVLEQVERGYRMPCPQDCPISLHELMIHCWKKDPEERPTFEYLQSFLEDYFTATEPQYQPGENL
# Fes = Fes (UniProt P07332); assay: as above
# Sequence of Fes (P07332 whole entry, looked up): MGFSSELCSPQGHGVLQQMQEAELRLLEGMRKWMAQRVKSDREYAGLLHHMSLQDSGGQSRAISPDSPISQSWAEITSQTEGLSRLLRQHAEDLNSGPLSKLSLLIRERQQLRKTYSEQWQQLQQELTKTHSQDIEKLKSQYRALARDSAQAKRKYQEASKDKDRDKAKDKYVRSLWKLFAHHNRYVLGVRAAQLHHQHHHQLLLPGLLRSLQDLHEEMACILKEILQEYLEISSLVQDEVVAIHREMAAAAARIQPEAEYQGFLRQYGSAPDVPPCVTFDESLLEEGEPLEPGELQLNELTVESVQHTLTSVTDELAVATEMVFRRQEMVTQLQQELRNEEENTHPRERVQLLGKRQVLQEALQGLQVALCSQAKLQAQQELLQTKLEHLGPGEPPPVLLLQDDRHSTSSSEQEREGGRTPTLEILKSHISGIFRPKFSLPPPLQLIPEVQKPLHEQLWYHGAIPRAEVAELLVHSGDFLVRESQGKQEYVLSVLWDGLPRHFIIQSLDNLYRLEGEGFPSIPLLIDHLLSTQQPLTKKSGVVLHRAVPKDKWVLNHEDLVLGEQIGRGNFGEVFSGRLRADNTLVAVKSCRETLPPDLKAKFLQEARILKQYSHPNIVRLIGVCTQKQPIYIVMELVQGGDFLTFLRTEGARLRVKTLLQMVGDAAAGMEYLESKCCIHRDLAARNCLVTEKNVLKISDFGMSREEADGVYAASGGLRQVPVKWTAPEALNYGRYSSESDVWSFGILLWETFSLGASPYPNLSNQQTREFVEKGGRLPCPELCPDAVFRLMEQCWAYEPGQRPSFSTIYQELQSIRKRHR
# MERTK = MERTK (UniProt Q12866); assay: as above
# Sequence of MERTK (Q12866 whole entry, looked up): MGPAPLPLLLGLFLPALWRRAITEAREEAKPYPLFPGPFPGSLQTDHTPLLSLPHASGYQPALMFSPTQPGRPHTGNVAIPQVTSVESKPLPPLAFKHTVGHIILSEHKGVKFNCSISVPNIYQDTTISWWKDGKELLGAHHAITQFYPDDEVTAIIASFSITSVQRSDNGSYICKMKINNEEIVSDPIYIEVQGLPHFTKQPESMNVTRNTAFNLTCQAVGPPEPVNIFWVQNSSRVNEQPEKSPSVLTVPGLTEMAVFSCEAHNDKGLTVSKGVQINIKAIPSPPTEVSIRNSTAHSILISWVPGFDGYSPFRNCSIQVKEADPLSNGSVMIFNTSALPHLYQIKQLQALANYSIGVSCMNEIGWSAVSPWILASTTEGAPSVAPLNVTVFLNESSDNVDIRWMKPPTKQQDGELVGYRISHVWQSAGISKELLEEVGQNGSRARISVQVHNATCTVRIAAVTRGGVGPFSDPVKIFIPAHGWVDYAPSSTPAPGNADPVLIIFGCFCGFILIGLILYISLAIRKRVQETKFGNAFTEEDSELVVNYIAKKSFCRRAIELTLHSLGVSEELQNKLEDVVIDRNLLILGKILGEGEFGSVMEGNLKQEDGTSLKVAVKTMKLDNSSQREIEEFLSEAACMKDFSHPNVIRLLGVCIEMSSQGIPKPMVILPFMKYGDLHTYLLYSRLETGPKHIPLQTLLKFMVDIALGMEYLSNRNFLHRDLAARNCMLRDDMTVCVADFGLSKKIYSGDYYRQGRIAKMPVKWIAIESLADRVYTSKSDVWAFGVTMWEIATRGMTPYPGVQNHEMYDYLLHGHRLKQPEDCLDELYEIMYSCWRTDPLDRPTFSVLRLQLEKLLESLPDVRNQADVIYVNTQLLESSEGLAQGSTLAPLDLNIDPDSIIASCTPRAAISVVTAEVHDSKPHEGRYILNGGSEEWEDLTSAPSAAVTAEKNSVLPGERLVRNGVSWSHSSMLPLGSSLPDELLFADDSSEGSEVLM
# c-Src = assay: as above
# FGFR3 = FGFR3 (UniProt P22607); assay: as above
# AncSZ = assay: as above
# EPHB2 = EPHB2 (UniProt P29323); assay: as above
# Jak2 = Jak2 (UniProt O60674); assay: as above
# c-Abl (mouse) = assay: as above
# Fer (mouse) = assay: as above
# 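Wherever SH2 binding enrichment of the phosphorylated peptide, bacterial display is given: peptide library displayed on the E. coli surface as eCPX fusions, selected cells deep-sequenced, score is each peptide's frequency after selection divided by its frequency in the input.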
# 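Wherever phosphorylation enrichment, bacterial display is given: 11-residue human phosphosite peptides and single-mutation variants displayed on the E. coli surface, counted by deep sequencing, each peptide's frequency after selection divided by its frequency in the unselected input library; frequency after pTyr selection over input frequency; kinase dosed for 20-30% of maximal phosphorylation in three min.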
# Sequence of FGFR1 (P11362 whole entry, looked up): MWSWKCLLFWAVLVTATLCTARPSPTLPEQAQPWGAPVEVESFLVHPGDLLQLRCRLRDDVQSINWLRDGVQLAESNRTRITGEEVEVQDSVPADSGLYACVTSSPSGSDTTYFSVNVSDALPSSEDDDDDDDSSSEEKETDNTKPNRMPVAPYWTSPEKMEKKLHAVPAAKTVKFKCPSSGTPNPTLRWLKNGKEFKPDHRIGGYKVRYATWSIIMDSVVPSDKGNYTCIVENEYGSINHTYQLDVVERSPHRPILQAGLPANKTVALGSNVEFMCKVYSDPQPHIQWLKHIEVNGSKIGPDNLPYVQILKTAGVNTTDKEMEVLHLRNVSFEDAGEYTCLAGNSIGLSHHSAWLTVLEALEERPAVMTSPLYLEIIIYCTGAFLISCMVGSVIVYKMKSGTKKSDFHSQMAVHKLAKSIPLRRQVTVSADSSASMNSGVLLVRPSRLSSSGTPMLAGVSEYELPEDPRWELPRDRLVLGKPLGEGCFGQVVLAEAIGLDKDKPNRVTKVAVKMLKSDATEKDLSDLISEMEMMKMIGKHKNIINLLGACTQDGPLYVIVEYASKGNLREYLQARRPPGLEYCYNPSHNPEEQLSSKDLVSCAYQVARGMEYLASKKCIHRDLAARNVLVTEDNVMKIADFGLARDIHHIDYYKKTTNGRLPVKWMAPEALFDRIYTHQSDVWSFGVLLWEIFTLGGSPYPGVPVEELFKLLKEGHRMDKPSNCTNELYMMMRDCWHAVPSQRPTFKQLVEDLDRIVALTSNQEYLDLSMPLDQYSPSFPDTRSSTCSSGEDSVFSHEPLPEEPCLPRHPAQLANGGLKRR
Sequence,SH2 binding enrichment (SHP2-C SH2),SH2 binding enrichment (Grb2 SH2),SH2 binding enrichment (c-Src SH2),phosphorylation enrichment (FGFR1),phosphorylation enrichment (EPHB1),phosphorylation enrichment (Hck),phosphorylation enrichment (Fyn),phosphorylation enrichment (Fes),phosphorylation enrichment (MERTK),phosphorylation enrichment (c-Src),phosphorylation enrichment (FGFR3),phosphorylation enrichment (AncSZ),phosphorylation enrichment (EPHB2),phosphorylation enrichment (Jak2),phosphorylation enrichment (c-Abl (mouse)),phosphorylation enrichment (Fer (mouse))
ATARPYRPYII [LRP5_Y1528],0.86,1.04,0.784,0.396,0.457,0.413,0.55,0.793,0.468,0.581,0.545,0.675,0.362,0.465,0.688,0.482
KRTFEYEAEKN [DENND2B_Y396_D399E],0.703,1.06,0.535,0.511,0.43,0.463,0.501,0.769,0.505,0.518,0.527,0.771,0.431,0.798,0.675,0.436
ITLKGYNLSNS [GNPTAB_Y728_K732N],0.884,1.05,0.627,0.525,0.385,0.477,0.488,0.639,0.381,0.448,0.618,0.66,0.487,0.547,0.466,0.433

# Continued, in another order:
SH2 binding enrichment (SHP2-C SH2),SH2 binding enrichment (Grb2 SH2),SH2 binding enrichment (c-Src SH2),Sequence,phosphorylation enrichment (FGFR1),phosphorylation enrichment (EPHB1),phosphorylation enrichment (Hck),phosphorylation enrichment (Fyn),phosphorylation enrichment (Fes),phosphorylation enrichment (MERTK),phosphorylation enrichment (c-Src),phosphorylation enrichment (FGFR3),phosphorylation enrichment (AncSZ),phosphorylation enrichment (EPHB2),phosphorylation enrichment (Jak2),phosphorylation enrichment (c-Abl (mouse)),phosphorylation enrichment (Fer (mouse))
0.715,0.79,0.46,YRKNTYNVKST [SYNE2_Y575_I574T],0.334,0.351,0.346,0.344,0.465,0.316,0.398,0.361,0.415,0.296,0.393,0.351,0.327
0.698,0.87,0.524,FAELVYTGFWH [ASS1_Y322],2.22,2.21,6,8.14,1.41,6.23,7.01,1.85,1.54,2.59,1.67,8.78,6.97
0.583,0.788,0.593,LGRKLYSIAAP [ABHD12_Y345],0.543,0.664,0.73,0.737,1.13,1.04,0.647,1.12,1.3,1.04,2.38,0.892,0.952
1.03,0.961,0.685,AKIDGYIISYR,0.607,0.678,0.604,0.37,1.39,0.46,0.568,0.684,1.15,0.657,0.966,0.755,0.566
0.751,0.662,0.367,QTEAPYRFIFM [PTPN11_Y511_Q510P_YF],2.71,0.728,0.645,0.637,1.34,0.595,0.777,1.98,1.34,0.626,1.55,1.34,4.48

# Source: the supplement of paper PMC10065799, “High-throughput profiling of sequence recognition by tyrosine kinases and SH2 domains using bacterial peptide display” (eLife, 2023)
